B1: ADAMTS-13 CUB domain fragment (domain or fragment)
chain: CGRQHLEPTGTIDMRGPGQADCAVAIGRPLGEVVTLRVLESSLNCSAGDMLLLWGRLTWRKMCRKLLDMTFSSKTNTLVVRQRCGRPGGGVLLRYGSQLAPETFYRECDMQLFGPWGEIVSPSLSPATSNAGGCRLFINVAPHARIAIHALATNMGAGTEGANASYILIRDTHSLRTTAFHGQQVLYWESESSQAEMEFSEGFLKAQASLRGQYWTLQSWVPEMQDPQSWKGKEGT
modifications: CUB1+CUB2 taken from the conventional CUB1 start to the C-terminus; HEK-293 expressed (likely N-glycosylated); amine-coupled to CM5 chip
B2: ADAMTS-13 construct consisting of a disintegrin, the first thrombospondin type 1 repeat, a cysteine-rich and a spacer domain (DTCS) (domain or fragment)
chain: RPQPGSAGHPPDAQPGLYYSANEQCRVAFGPKAVACTFAREHLDMCQALSCHTDPLDQSSCSRLLVPLLDGTECGVEKWCSKGRCRSLVELTPIAAVHGRWSSWGPRSPCSRSCGGGVVTRRRQCNNPRPAFGGRACVGADLQAEMCNTQACEKTQLEFMSQQCARTDGQPLRSSPGGASFYHWGAAVPHSQGDALCRHMCRAIGESFIMKRGDSFLDGTRCMPSGPREDGTLSLCVSGSCRTFGCDGRMDSQQVWDRCQVCGGDNSTCSPRKGSFTAGRAREYVTFLTVTPNLTSVYIANHRPLFTHLAVRIGGRYVVAGKMSISPNTTYPSLLEDGRVEYRVALTEDRLPRLEEIRIWGPLQEDADIQVYRRYGEEYGNLTRPDITFTYFQPKPRQA
modifications: disintegrin start by convention, end 685 from printed MDTCS limit; HEK-293 expressed (likely glycosylated) / CUB1+CUB2 taken from the conventional CUB1 start to the C-terminus; HEK-293 expressed …

Experiments:
[1] = biological target: T1, N-terminal ADAMTS-13 fragment MDTCS (aa1-685) (UniProt Q76LX8 30-685); experiment: SPR; CUB fragment immobilised on a CM5 chip through amine-coupling; N-terminal fragment perfused at 30 μl/min for 120 s, dissociation 300 s; KD from maximal RU as a function of concentration (0-1.0 μM), Prism 8.0; details: both partners purified
T1 construct: signal peptide in the construct; ADAMTS-13, N-terminal fragment MDTCS (metalloprotease, disintegrin-like domain, first TSP1 repeat, cysteine-rich and spacer domain), aa1-685; The signal peptide and propeptide are probably removed on secretion (surmise); also called ADAMTS-13 variant truncated after spacer domain; source: Drosophila (S2) cell line, purified
T1 sequence (looked up): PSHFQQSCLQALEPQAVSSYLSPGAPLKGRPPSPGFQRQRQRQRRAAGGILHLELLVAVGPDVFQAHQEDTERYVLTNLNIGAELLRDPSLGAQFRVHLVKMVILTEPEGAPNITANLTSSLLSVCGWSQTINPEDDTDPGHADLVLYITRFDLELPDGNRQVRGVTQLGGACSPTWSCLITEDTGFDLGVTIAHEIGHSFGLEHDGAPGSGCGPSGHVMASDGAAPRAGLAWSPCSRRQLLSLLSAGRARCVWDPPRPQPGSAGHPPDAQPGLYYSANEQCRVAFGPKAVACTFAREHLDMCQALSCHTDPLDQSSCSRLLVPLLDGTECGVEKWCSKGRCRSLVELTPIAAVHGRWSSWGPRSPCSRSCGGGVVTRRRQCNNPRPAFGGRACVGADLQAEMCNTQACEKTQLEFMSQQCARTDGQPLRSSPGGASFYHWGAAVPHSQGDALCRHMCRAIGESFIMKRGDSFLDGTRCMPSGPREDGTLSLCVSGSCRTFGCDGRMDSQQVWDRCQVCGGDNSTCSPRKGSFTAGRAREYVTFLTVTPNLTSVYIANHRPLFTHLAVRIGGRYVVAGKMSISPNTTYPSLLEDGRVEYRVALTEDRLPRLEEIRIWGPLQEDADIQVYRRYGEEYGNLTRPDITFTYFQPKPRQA

[2] = biological target: T2, ADAMTS-13 CUB domain fragment; experiment: as above; details: both partners purified
T2 chain: B1 chain

Row | Binder | Kd [1] | Kd [2]
1 | B1 | 330 nM | –
2 | B2 | – | 460 nM
